As usually defined, the Kd is the constant that tells how readily two partners part at equilibrium.

No end group written: not given here.

From patent publication US20090169546A1 (published 2009) come the findings set out here.

The target of test [1] is T1, HMGB1 B-box peptide 91-108 (human, also: biotinylated, site not given here).
T1 peptide: DPNAPKRPPSAFFLFCSE
Put plainly: ELISA on biotinylated peptides captured on avidin. The procedure: The plate was then blocked with 4% milk powder dissolved in PBS at 37° C. for 1 hour. The blocking solution was removed and replaced with human anti-HMG1 antibodies at various concentrations (see FIGS. 5A-B). […] HRP activity was detected with Sureblue HRP substrate (KPL). Plates were read at 450 nm using a Kinetic Microplate Reader (Molecular Devices). […] After washing and blocking with 1% BSA in PBS, the biotinylated peptides were individually added into the avidin coated wells and incubated for 30 min at room temperature. The serial diluted antibody G4, S16 and S6 at the initial concentration at 10 μg/ml were then transferred into the wells followed by adding mouse anti human IgG-HRP conjugate (Pierce). Detection was accomplished by adding 50 μl of tetramethylbenzidine (TMB) substrate (KPL) and the absorbance was read at 450 nm.

The target in test [2] is T2, actively secreted HMGB1 of LPS activated HUVEC cells (UniProt P09429 1-215).
T2 sequence (looked up): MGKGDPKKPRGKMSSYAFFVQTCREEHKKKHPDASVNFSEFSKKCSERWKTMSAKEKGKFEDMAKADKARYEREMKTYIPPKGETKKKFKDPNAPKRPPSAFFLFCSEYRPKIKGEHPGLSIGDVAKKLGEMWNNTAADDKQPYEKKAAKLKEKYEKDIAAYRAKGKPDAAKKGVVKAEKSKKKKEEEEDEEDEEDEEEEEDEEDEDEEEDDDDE
Put plainly: immunofluorescence on LPS treated HUVEC, antibody 1 ug/ml. The protocol:
(§1) Immunofluorescence: Intracytoplasmic (ic) HMGB1 was quantitated by direct immunofluorescence. HUVEC were harvested by trypsin-EDTA treatment and seeded on a glass coverslip. Once the cells are settled, they were stimulated with 0.2 μg/ml of LPS (Sigma) for 4 hours. The cells were fixed in 2% paraformaldehyde for 15 min and then permeabilized in 0.2% Triton X-100 for 2 min. Fixed and permeabilized cells were incubated with anti-HMGB1 antibodies at 1 μg/ml for 1 hour at room temperature. Cells were then washed to remove excess or nonspecifically bound primary antibody followed by incubation with anti human IgG conjugated with fluorescence (Pierce). The sections were mounted with fluoromount (Southern Associates, Birmingham, Ala.), and the images were processed with a Nikon microscope (Japan) and a SPOT imaging system (Diagnostic Instrument).
(§2) As noted above, the different antibodies bind differently to HMGB1 isolated or prepared from different sources. To expand this observation the anti-HMBG1 antibodies G4 and S6 were used for immunostaining of untreated or LPS activated THp-1 (not shown) and HUVEC cells (FIG. 4F). […] As nuclear HMHB1 binds to DNA and histones, which might be disrupted after cell freeze and thaw we immunoprecipitate freeze thaw preparation and probed for histones by Western Blot. No DNA or histones could be detected from this preparation (data not shown). […]

The target of test [3] is T3, recombinant HMG1 produced in E. coli as calmodulin binding protein (CBP) fusion (human).
T3 chain: T2 sequence (looked up)
Put plainly: cell-based or functional assay.

For test [4], the target named is T3, recombinant HMG1 produced in E. coli as …. Put plainly: BIAcore 3000; mAb amine-coupled to CM5, HMG1 injected in two-fold dilutions; steady-state model. The procedure:
HMG1 Binding Affinity via BIAcore Analysis: All experiments were performed on a BIAcore 3000 instrument (BIAcore, Inc., Piscataway, N.J.). Briefly, each mAb was immobilized to a CM5 sensor chip using a standard amine coupling chemistry. Separately a reference (control) flow cell was also prepared. Two-fold, serial dilutions of HMG1 in instrument buffer were sequentially injected at a slow flow rate over the individual mAb and reference flow-cell surfaces. Following the binding and dissociation of HMG1, the mAbs surfaces were regenerated with a brief pulse of 1M NaCl-50 mM NaOH. At the end of each experiment, the binding curves were evaluated using a steady-state model available through the BIAevaluation software supplied by BIAcore, Inc. (Piscataway, N.J.).

The target of test [5] is T4, nuclear HMGB1 in HUVEC cells (UniProt P09429 1-215).
T4 construct: HUVEC are human cells; also called nuclear HMGB1 (immunostaining)
T4 sequence (looked up): T2 sequence (looked up)
Kind of test: immunofluorescence on HUVEC, antibody 1 ug/ml. The protocol:
as §1, §2

In test [6] the target is T5, released HMG1 from the conditioned media of necrotic 293H cells (human, UniProt P09429 1-215).
T5 construct: also called necrotic HMG1
T5 sequence (looked up): T2 sequence (looked up)
Kind of test: sandwich ELISA, relative binding. The procedure:
(§3) Sandwich ELISA (soluble HMG1): Immunoplates (EIA/RIA plate, High binding, Costar) were coated with anti human IgG Fc at 10 μg/ml in PBS (pH 7.2) and incubated at 4° C. overnight. The coating reagent was removed and the plates were rinsed briefly with PBS. The plates were then blocked with 4% milk for 1 hour at 37° C. and rinsed with PBS. The anti-HMG1 antibodies were diluted in 4% milk. For serial dilutions, the antibodies were used at a starting concentration of 20 μg/ml. The diluted anti-HMG1 antibodies were then added into plate and incubated for 1 hr at 37° C. The plate was then washed 10 times with PBST (PBS/0.1% tween 20) and incubate with antigen (HMGB1, 2 μg/ml; or 0.7 μg/ml for native HMGB1) in 4% milk and incubated at 37° C. for 1 h. The plate was then wash 10 times and incubated with mouse anti-HMGB1, 1 μg/ml in 4% milk at 37° C. for 1 h. The plate was washed 10 times and incubated with anti-mouse IgG-HRP at 1:1000 at 37° C. for 1 h. The plate was then washed and developed. HRP activity was detected with Sureblue HRP substrate (KPL). Plates were read at 450 nm using a Kinetic Microplate Reader (Molecular Devices).

In test [7] the target is T6, native nuclear HMG1 prepared from 293H cells by freeze thaw (human, UniProt P09429 1-215).
T6 sequence (looked up): T2 sequence (looked up)
Kind of test: sandwich ELISA, relative binding. The procedure: as §3
On the technique in general: An ELISA detects its analyte on a solid surface through an enzyme-linked reagent.

Test [8] addresses T7, activated HMG1 prepared from LPS stimulated THP-1 cells (human, UniProt P09429 1-215).
T7 construct: also called Native HMGB
T7 sequence (looked up): T2 sequence (looked up)
Put plainly: sandwich ELISA, relative binding. The procedure:
as §3

B1: anti-HMG1 antibody G4 (antibody, V domains shown)
VH: EVQLLESGGGLVQPGGSLRLSCAASGFTFSWYDMTWVRQAPGKGLEWVSSISPSGGYTKYADSVKGRFTISRDNSKNTLYLQMNSLRAEDTAVYYCTTEFYDYLDVWGKGTTVTVSS
VL: DIQMTQSPGTLSLSPGEGATLSCRASQSVSSTYLAWYQQKPGQAPRLLIYEASKRATGTPARFSGSGSGTDFTLSISSLEPEDFAVYYCQHRHNWPPQWTFGQGTKVEVK
notes: also called ATCC PTA-6258
Regarding B1, the binding result in test [1], in test [2], in test [5], in test [6], in test [7] and in test [8] was “binds” in each case. In test [3], the “IC50, inhibition of rHMG1 stimulated IL-1β release from human PBMCs” value is 5.01 µg/mL. Also, the “IC50, inhibition of rHMG1 stimulated IL-6 release from human PBMCs” value in test [3] worked out at 0.9 nM. Moreover, in test [3], the “IC50, inhibition of rHMG1 stimulated IL-12 release from human PBMCs” value came out at 0.715 µg/mL. In addition, the “IC50, inhibition of rHMG1 stimulated TNF-α release from human PBMCs” value in test [3] turned out to be 5.51 µg/mL. Further, the equilibrium dissociation constant (Kd) in test [4] was determined as 30 nM.
